Reference: paper PMC7413259

Legend:
Details in all cases: 5' triphosphate, B1: 50 mM Tris-HCl pH 8.0, 150 mM NaCl, 1 mM MgCl2, 2 mM beta-mercaptoethanol, 10% glycerol, 20 C, B2: same with 100 mM NaCl
[1] = target: T1, ZIKV NS5 MTase domain WT (Zika virus) (UniProt A0A142I5B9); assay: fluorescence titration
[2] = system: ZIKV NS5 RdRp domain (Zika virus); assay: fluorescence titration
[3] = target: ZIKV NS5 WT (Zika virus) (UniProt A0A024B7W1); assay: fluorescence titration
[4] = target: T1, ZIKV NS5 MTase domain WT (Zika virus); assay: fluorescence titration; remark: listed apart in the source
[5] = target: T1, ZIKV NS5 MTase domain WT (Zika virus); assay: fluorescence anisotropy

ZIKV SLA (SLA-F)
Kd [1]: 590 nM | Kd [2]: 530 nM | Kd [3]: 280 nM | Kd [4]: 400 nM | Kd [5]: 310 nM
